{"source": "patent US20110038869A1", "about": "(Genmab, published 2011)", "binders": {"B1": {"name": "Antibody 038 (antibody, human IgG1, V domains shown)", "VH": "QVQLVESGGGVVQPGRSLRLSCAASGFTFSTYGMHWVRQAPGKGLEWVAVISHDGSDKYYADSVKGRFTISRDNSKNTLYLQMNSLRAEDTAVYYCARDQSIIETFDYWGQGTLVTVSS", "VL": "EIVLTQSPATLSLSPGERATLSCRASQSVSSYLAWYQQKPGQAPRLLIYDASNRATGIPARFSGSGSGTDFTLTISSLEPEDFAVYYCQQRSNWGFTFGPGTKVDIKR", "notes": "Human antibody; also called HuMab 038"}, "B2": {"name": "Antibody 024 (antibody, V domains shown)", "VH": "QVQLVQSGAEVKKPGASVKVSCKASGYTFTSYGLSWVRQAPGQGLEWMGWISPYNGNTHYAQKLQGRVTMTTDTSTSTAYMDLRSLRSDDTAVYYCARDSAAHGMDVWGQGTTVTVSS", "VL": "DIQMTQSPSSLSASVGDRVTITCRASQGISSWLAWYQQKPEKAPKSLIYAASSLQSGVPSRFSGSRSGTDFTLTISSLQPEDFATYYCQQYNSYPYTFGQGTKLEIKR", "notes": "also called HuMab 024"}, "B3": {"name": "Antibody 026 (antibody, V domains shown)", "VH": "QVQLVQSGAEVKKPGASVKVSCKASGYTFTSYGLSWVRQAPGQGLEWMGWISAYNGNTNYAQKLQGRVTMTTDTSTSTAYMDLRSLRSDDTAVYYCARDSAAHGMDVWGQGTTVTVSS", "VL": "DIQMTQSPSSLSASVGDRVTITCRASQGISSWLAWYQQKPEKAPKSLIYAASSLQSGVPSRFSGSRSGTDFTLTISSLQPEDFATYYCQQYNSYPYTFGQGTKLEIKR", "notes": "Human antibody; also called HuMab 026"}, "B4": {"name": "Antibody 028 (antibody, V domains shown)", "VH": "QVQVVQSGAEVKKPGASVKVSCKTSGYTFTSYGISWVRQAPGQGLEWMGWISAYNGNTKYAQKLQGRLTMTTDTSTTTAYMELRSLRSDDTAVYYCARDSAAHGMDVWGQGTTVSVSS", "VL": "DIQMTQSPSSLSASVGDRVTITCRASQGISSWLAWYQQKPEKAPKSLIYAASSLQSGVPSRFSGSRSGTDFTLTISSLQPEDFATYYCQQYNSYPYTFGQGTKLEIKR", "notes": "List 1 gives no VL for antibody 028; The VL is therefore uncertain; also called HuMab 028"}, "B5": {"name": "Antibody 022 (antibody, V domains shown)", "VH": "QVQLVQSGAEVKKPGASVKVSCKASGYTFTSYGLSWVRQAPGQGLEWMGWISPYNGNTHYAQKLQGRVTMTTDTSTSTADMDLRSLRSDDTAVYYCARASAAHGMDVWGQGTTVTVSS", "VL": "DIQMTQSPSSLSASVGDRVTITCRASQGISSWLAWYQQKPEKAPKSLIYAASSLQSGVPSRFSGSRSGTDFTLTISSLQPEDFATYYCQQYNSYPYTFGQGTKLEIKR", "notes": "also called HuMab 022"}, "B6": {"name": "Antibody 020 (antibody, V domains shown)", "VH": "QVQLVQSGGEVKKPGASVKVSCKTSGYTFTSYGISWVRQAPGQGLEWMGWISAYNGNTKYAQKLQGRLTMTTDTSTTTAYMELRSLRSDDTAVYYCARDSAAHGMDVWGQGTTVTVSS", "VL": "DIQMTQSPSSLSASVGDRVTITCRASQGISSWLAWYQQKPEKAPKSLIYAASSLQSGVPSRFRGSGSGTDFTLTISSLQPEDFATYYCQQYNSYPYTFGQGTKLEIKR", "notes": "also called HuMab 020"}}, "key": {"[1]": {"target": "T1, CD32bECDHis (human, UniProt P31994 43-223, limits assumed)", "T1 construct": "Produced in HEK-293F cells; also called extracellular domain of CD32b with C-terminal His tag; soluble CD32b", "T1 sequence (looked up)": "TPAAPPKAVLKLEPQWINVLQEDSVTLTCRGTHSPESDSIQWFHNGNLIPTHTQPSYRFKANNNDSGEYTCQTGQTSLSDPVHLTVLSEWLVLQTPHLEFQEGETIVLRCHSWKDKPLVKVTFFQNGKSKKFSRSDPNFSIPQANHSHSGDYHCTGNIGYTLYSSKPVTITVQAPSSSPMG", "test": "ELISA on coated CD32bECDHis", "experimental": "The specificity of the obtained anti-CD32b HuMabs was evaluated by ELISA. ELISA plates (Microlon; Greiner Bio-One) were coated overnight at 4° C. with 2 μg/ml of CD32aECDHis and CD32bECDHis in PBS, pH 7.4. Coated ELISA plates were washed with PBS, blocked for one hour at room temperature with 2% (v/v) chicken serum (Gibco, Paisley, Scotland) in PBS and washed again with PBS. Subsequently, HuMabs, serially diluted in PBSTC (PBS supplemented with 2% (v/v) chicken serum and 0.05% (v/v) Tween-20), were incubated for 1 hr at RT under shaking conditions (300 rpm). Bound HuMabs were detected using HRP-conjugated goat-anti-human IgG antibodies (Jackson ImmunoResearch Europe) diluted 1:10,000 in PBSTC, which were incubated for 1 hr at RT under shaking conditions (300 rpm). […] Binding curves were analyzed using non-linear regression (sigmoidal dose-response with variable slope) using GraphPad Prism V4.03 software."}, "[2]": {"target": "T2, full length CD32a on stably transfected IIA1.6 cells (human, UniProt P12318 34-317)", "T2 construct": "whole, on cells; also called IIA1.6-CD32a; CD32a-expressing IIA1.6 cells", "T2 sequence (looked up)": "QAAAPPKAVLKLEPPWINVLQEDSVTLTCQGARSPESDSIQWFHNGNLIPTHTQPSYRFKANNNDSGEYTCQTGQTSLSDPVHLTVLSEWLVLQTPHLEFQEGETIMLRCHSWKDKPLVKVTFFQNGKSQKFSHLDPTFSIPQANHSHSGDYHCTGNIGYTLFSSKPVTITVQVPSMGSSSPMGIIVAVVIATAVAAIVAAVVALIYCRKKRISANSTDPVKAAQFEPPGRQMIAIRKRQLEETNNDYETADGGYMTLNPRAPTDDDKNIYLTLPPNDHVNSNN", "test": "flow cytometry on IIA1.6-CD32a cells", "experimental": "(§1) After harvesting and counting, IIA1.6 cells stably transfected with full length CD32a and CD32b (van den Herik-Oudijk et al., 1994), control IIA1.6 cells and Daudi-luc cells were resuspended in PBS (1×10⁶ cells/ml). Cells were put in 96-well V-bottom plates (100 μl/well) and washed twice with FACS buffer (PBS supplemented with 0.1% BSA and 0.02% Na-azide). Thereafter, 50 μl of serially diluted HuMab in FACS buffer was added to the cells and incubated for 30 minutes at 4° C. After washing three times with FACS buffer, 50 μl of phycoerythrin (PE)-conjugated rabbit anti-human IgG (Jackson ImmunoResearch Europe), diluted 1:200 in FACS buffer, was added. After 30 minutes at 4° C. (in the dark), cells were washed three times, and specific binding of the HuMabs was detected by flow cytometry on a FACSCalibur (BD Biosciences). […] Binding curves were analyzed using non-linear regression (sigmoidal dose-response with variable slope) using GraphPad Prism V4.03 software (GraphPad Software, San Diego, Calif., USA)."}, "[3]": {"target": "T3, full length CD32b2 on transfected IIA1.6 cells (human, UniProt P31994-2 43-291)", "T3 construct": "whole, on cells; also called IIA1.6-CD32b2", "T3 sequence (looked up)": "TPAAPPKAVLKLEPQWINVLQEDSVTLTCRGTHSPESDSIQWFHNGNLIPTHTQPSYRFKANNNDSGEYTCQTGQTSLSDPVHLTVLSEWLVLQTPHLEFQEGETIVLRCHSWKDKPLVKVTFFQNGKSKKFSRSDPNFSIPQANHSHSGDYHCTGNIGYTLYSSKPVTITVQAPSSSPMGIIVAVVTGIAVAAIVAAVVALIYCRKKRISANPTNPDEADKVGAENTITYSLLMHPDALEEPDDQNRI", "test": "flow cytometry on IIA1.6-CD32b2 cells", "experimental": "as §1\nTo analyze binding of anti-CD32b HuMabs to CD32b1 and CD32b2, IIA1.6 cells transfected with full length CD32b1 or CD32b2 (van den Herik-Oudijk et al., 1994) were prepared as described supra. The assay was performed as described supra. Flow cytometry was performed on a FACS Canto II (BD Biosciences)."}, "[4]": {"target": "T4, biotinylated CD32bECDHis (human, UniProt P31994 43-223, limits assumed, biotinylated (sites not given))", "T4 sequence (looked up)": "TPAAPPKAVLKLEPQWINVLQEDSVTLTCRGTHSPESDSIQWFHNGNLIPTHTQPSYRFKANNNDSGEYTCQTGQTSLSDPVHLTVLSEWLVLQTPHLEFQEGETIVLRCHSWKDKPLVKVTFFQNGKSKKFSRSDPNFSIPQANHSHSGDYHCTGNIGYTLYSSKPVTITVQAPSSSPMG", "test": "competition ELISA, competitor 024", "experimental": "ELISA wells were coated overnight at 4° C. with anti-CD32b HuMabs serially diluted in PBS. The ELISA wells were washed with PBS, blocked for one hour at room temperature with 2% (v/v) chicken serum (Gibco, Paisley, Scotland) in PBS and washed again with PBS. Subsequently, the immobilized antibodies were incubated with biotinylated CD32bECDHis serially diluted in PBSTC. After washing with PBS/Tween, bound biotinylated CD32bECDHis was incubated with Streptavidin-poly-HRP (Sanquin, Amsterdam, The Netherlands) for 1 hr at RT an the reaction was developed as described supra.\nTo this end, ELISA wells coated with anti-CD32b HuMabs were incubated in the presence of an excess of CD32b-specific antibody and the predetermined concentration of biotinylated CD32bECDHis in fluid phase. The reaction was developed as described."}, "[5]": {"target": "T2, full length CD32a on stably transfected …", "test": "flow cytometry on IIA1.6 cells expressing full length CD32a, PE anti-human IgG, MFI", "experimental": "as §1"}}}
{"binder": "B1", "values": [{"measurement": "EC50", "setting": "[1]", "value": 0.62, "unit": "nM"}, {"measurement": "EC50", "setting": "[2]", "value": 3.48, "unit": "nM"}, {"measurement": "EC50", "setting": "[3]", "value": 0.27, "unit": "nM"}, {"measurement": "% residual binding", "setting": "[4]", "value": 351, "unit": "%"}]}
{"binder": "B2", "values": [{"measurement": "EC50", "setting": "[1]", "value": 0.75, "unit": "nM"}, {"measurement": "EC50", "setting": "[3]", "value": 1.96, "unit": "nM"}, {"measurement": "% residual binding", "setting": "[4]", "value": 15, "unit": "%"}, {"measurement": "binding result", "setting": "[5]", "value": "no binding (tested: about 7e-8 M)"}]}
{"binder": "B3", "values": [{"measurement": "EC50", "setting": "[1]", "value": 0.51, "unit": "nM"}, {"measurement": "% residual binding", "setting": "[4]", "value": 1, "unit": "%"}, {"measurement": "binding result", "setting": "[5]", "value": "no binding (tested: about 7e-8 M)"}]}
{"binder": "B4", "values": [{"measurement": "EC50", "setting": "[1]", "value": 0.48, "unit": "nM"}, {"measurement": "EC50", "setting": "[3]", "value": 2.18, "unit": "nM"}, {"measurement": "% residual binding", "setting": "[4]", "value": 7, "unit": "%"}, {"measurement": "binding result", "setting": "[5]", "value": "no binding (tested: about 7e-8 M)"}]}
{"binder": "B5", "values": [{"measurement": "EC50", "setting": "[1]", "value": 0.75, "unit": "nM"}, {"measurement": "% residual binding", "setting": "[4]", "value": 13, "unit": "%"}, {"measurement": "binding result", "setting": "[5]", "value": "no binding (tested: about 7e-8 M)"}]}
{"binder": "B6", "values": [{"measurement": "EC50", "setting": "[1]", "value": 0.49, "unit": "nM"}, {"measurement": "% residual binding", "setting": "[4]", "value": 4, "unit": "%"}, {"measurement": "binding result", "setting": "[5]", "value": "no binding (tested: about 7e-8 M)"}]}
